Laboratory results as given in patent US20240216553A1, “DEVELOPMENT OF CD163 TARGETING AGENT FOR IMAGING AND THERAPY” (Washington University, priority 2022, published 2024).
Square brackets hold non-standard residues; d marks the D form. Ends that are not written are not given here. Peptide text beside a SMILES is read from it. * marks the point of attachment. X1 = O=C(O)CN1CCN(CC(=O)O)CCN(CC(=O)NCCN2C(=O)CC(*)C2=O)CCN(CC(=O)O)CC1

Key:
[1] = human, in vivo
Experimental: Translation of [^64Cu]-DOTA-ECL1i for human Imaging. Animal toxicity studies with non-radioactive Cu-DOTA-ECL1i, dosimetry using [^64Cu]-DOTA-ECL1i in naïve mice were performed and submitted the exploratory investigative new drug (eIND) application to US Food Drug Administration (FDA). Following approvals from FDA, Washington University Radioactive Drug Research Committee (RDRC) and Institutional Review Board (IRB), the human dosimetry studied in six healthy volunteers (3 males, 3 females) who were injected with [^64Cu]-DOTA-ECL1i (5.2 mCi-10.4 mCi) and scanned at 15-30 min, 2-4 h, 20 h, and 44 h post injection was initiated. […] Approximately 80% of the activity was excreted in the urine within 2-4 hours after injection. […] The gender average Effective Dose was 0.064±0.012 rem/mCi (0.073 rem/mCi for females and 0.056 rem/mCi for the males). The critical organ for both genders was the urinary bladder wall, with the highest average estimated dose derived from the female model at 0.45 rad/mCi. Therefore, a dose of 8-10 mCi was injected to each patient in the HNSCC patient studies.

[2] = target: T1, recombinant human CCR2 N-terminus protein (1-42 amino acids) (Homo sapiens, UniProt P41597); test: Peptide ELISA of biotin-labelled peptides; format: binding; parameters: dose or concentration left out as unconfirmed; settings: n=3/group
T1 construct: recombinant human CCR2 N-terminus protein (1-42 amino acids)
T1 sequence (P41597 1-42): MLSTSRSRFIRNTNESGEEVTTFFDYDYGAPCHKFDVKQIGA
Experimental: Phage display screening and identification of new CCR2 binding peptides. Using a recombinant human CCR2 N-terminus protein (1-42 amino acids) with a glutathione s-transferase (GST) tag, phage display screening was performed using Ph.D.™-12 peptide library to identify sequences binding to CCR2. After three rounds of phage selections, 50 phages were selected to amplify in E. coli, titer, and for DNA sequencing. Enzyme-linked immunosorbent assay (ELISA) was performed with pre-selected phages and identified five peptide sequences showing potential binding to CCR2. These peptides conjugated with biotin labels were customized for further peptide ELISA assays. […] Therefore, these peptides were selected as CCR2 binding sequences to synthesize peptide-chelator conjugates. To further confirm the specific binding of these peptides, peptide docking studies were performed based on a crystal structure of CCR2 (PDB Id 6GPS) and receptor structures resulting from molecular dynamics simulations of CCR2 and endogenous ligand CCL2 complex using the program AutoDock CrankPep.

[3] = target: CCR2 (human, on THP-1 cells and in human HNSCC tissue) (human) (UniProt P41597); test: in vitro binding assay using THP-1 cells (competitive receptor binding with the non-radioactive counterpart, per paragraph 179)
[4] = target: T2, CD163 (human, on CD163 overexpressing U87 cells and in human carotid endarterectomy tissue) (human, UniProt Q86VB7 42-1156); test: competitive cell binding on U87 cells overexpressing CD163; cold ICT-01 displaces ^64Cu-ICT-01
T2 construct: whole, on cells; also called CD163 receptor; human CD163
Experimental: The in vitro cell binding assay of ⁶⁴Cu-ICT-01 was performed in U87 cells, which overexpresses CD163 receptor.

[5] = target: T2, CD163 (human, on CD163 overexpressing …); test: competitive cell binding on CD163 overexpressing U87 cells; 37 kBq ^64Cu-ICT-01 with non-radioactive ICT-01 at 10^-5-10^-10 M, gamma counting
Experimental: An in vitro cell binding assay of ⁶⁴Cu-ICT-01 to CD163 was performed with a CD163 overexpressing U87 cell line. U87 cells seeded on a 12-well tissue culture plate were incubated at room temperature with 37 kBq of ⁶⁴Cu-ICT-01 in the presence of non-radioactive ICT-01 in increasing concentrations (10⁻⁵-10⁻¹⁰ M) in binding media (Dulbecco's Modified Eagle Medium (DMEM): 25 mM HEPES, 0.2% bovine serum albumin (BSA), and 0.3 mM 1,10-phenanthroline). The reaction media was aspirated after incubation. Cells were rinsed with 0.8 mL of ice-cold pH 7.4, 0.2% BSA/0.01 M phosphate buffered saline (PBS) twice and lysed in 0.8 mL of 1 M NaOH for 10 min. Each well was rinsed with 0.8 mL of PBS (1×, pH7.4)/0.2% BSA, which was collected into a plastic tube. The radioactivity in tubes was measured with a gamma counter (Wallac Wizard 1480, Perkin Elmer). The half-maximal inhibitory concentration (IC₅₀) for ⁶⁴Cu-ICT-01 was calculated using the GraphPad Prism (10.0.2).

T2 sequence (Q86VB7 42-1156): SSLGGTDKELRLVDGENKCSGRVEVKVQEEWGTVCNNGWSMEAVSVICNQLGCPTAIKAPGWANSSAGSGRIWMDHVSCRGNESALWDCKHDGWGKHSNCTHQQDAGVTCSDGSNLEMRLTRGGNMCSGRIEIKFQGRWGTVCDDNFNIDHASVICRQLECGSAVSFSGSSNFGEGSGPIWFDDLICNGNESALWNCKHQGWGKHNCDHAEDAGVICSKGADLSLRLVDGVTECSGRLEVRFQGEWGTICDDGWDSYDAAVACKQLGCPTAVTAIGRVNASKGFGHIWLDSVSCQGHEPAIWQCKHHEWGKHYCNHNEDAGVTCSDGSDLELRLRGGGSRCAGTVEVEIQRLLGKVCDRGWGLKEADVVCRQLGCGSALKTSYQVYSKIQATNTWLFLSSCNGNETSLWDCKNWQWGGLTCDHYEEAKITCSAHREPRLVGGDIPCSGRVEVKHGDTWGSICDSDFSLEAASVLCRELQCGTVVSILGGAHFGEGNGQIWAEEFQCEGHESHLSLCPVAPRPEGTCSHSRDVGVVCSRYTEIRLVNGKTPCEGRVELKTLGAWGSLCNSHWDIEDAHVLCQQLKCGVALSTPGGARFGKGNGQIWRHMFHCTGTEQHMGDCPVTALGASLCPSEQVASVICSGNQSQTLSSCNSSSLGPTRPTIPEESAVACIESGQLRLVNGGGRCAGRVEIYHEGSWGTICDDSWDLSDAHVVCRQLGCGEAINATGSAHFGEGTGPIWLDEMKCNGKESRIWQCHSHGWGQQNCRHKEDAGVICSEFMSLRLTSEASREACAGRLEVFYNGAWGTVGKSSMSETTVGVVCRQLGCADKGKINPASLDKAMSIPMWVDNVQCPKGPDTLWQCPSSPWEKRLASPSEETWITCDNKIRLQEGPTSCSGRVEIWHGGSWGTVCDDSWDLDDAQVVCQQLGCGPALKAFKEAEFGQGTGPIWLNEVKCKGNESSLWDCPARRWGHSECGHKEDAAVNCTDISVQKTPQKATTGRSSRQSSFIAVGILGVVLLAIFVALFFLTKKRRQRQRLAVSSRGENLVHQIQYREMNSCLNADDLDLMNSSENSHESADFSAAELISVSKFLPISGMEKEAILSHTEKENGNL

CC(C)C[C@@H](N)C(=O)NCC(=O)N[C@@H](C(=O)N[C@H](Cc1ccccc1)C(=O)N[C@H](CC(C)C)C(=O)N[C@H](CCCCN)C(=O)N[C@H](CSC1CC(=O)N(CCNC(=O)CN2CCN(CC(=O)O)CCN(CC(=O)O)CCN(CC(=O)O)CC2)C1=O)C(=O)O)[C@H](C)O (stereo partly drawn) [[^64Cu]-DOTA-ECL1i, metal not drawn] (H-[dL]G[dT][dF][dL][dK][dC](X1)-OH; N-terminus and C-terminus assumed)
Effective Dose, females [1]: 0.073 rem/mCi
Effective Dose, males [1]: 0.056 rem/mCi
gender average Effective Dose [1]: 0.064±0.012 rem/mCi
highest average estimated dose, urinary bladder wall (critical organ) [1]: 0.45 rad/mCi

HWKWLKPWAVNT [P15]
binding to CCR2 N-terminus protein compared to GST tag alone and BSA [2]: significantly higher binding

LIPAPGGTPRAG [P21]
binding to CCR2 N-terminus protein compared to GST tag alone and BSA [2]: significantly higher binding

VDDHYGTIVRNG [P08]
binding to CCR2 N-terminus protein compared to GST tag alone and BSA [2]: significantly higher binding

[^64Cu]-DOTA-ECL1i (peptide)
IC50 [3]: 58.3 nM

B1: ICT-01 (non-radioactive) (peptide)
peptide: WFWNHGWQWSSK
modifications: not fully specified
notes: also called non-radioactive ICT-01; CD163 targeting peptide ICT-01
IC50 [4]: 26.8 nM
IC50 [5]: 14.4 nM
